Target: SARS-CoV-2 RBD (residues 319-541) with an N-terminal His6 tag (SARS-CoV-2, UniProt P0DTC2)
Assay: crystal structure

B1: BD-236 Fab (Fab, V domains shown)
VH: EVQLVESGGGLIQPGGSLRLSCAASGITVSSNYMSWVRQAPGKGLEWVSVIYSGGSTDYADSVKGRFTISRDKSKNTLYLQMNSLRAEDTAVYYCARDLGEAGGMDVWGQGTTVTVSS
VL: AIQLTQSPSSLSASVGDRVTITCRASQGISSYLAWYQQKPGKAPKLLIYAASTLQSGVPSRFSGSGSGTDFTLTISSLQPEDFATYYCQQLNSYPPAFGGGTKVEIK
binding result: binds
